This assay concerns the target Alexa Fluor 488-PR30 peptide (human). Briefly: single-molecule TIRF motility assay, co-transport of peptide foci with motors; 1 μM fluorescent PR30 with KIF5B::GFP or TMR-dynein-dynactin-BICD2N on immobilised microtubules; motility buffer with 25 mM KCl, α-casein, 5 mM MgATP; 23 ± 1°C; foci of PR30 moving with processive motors scored on kymographs.

Chain of Alexa Fluor 488-PR30 peptide (human) (peptide, as listed by the source): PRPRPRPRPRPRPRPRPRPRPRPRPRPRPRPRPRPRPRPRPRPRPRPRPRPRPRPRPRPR

Turning to “TMR-dynein-dynactin-BICD2N complex (from UniProt Q14204 1-4646; A0A287B8J2 1-1281)”, the percent of processive motor complexes transporting large foci of PR30 came out at 8.1%.

The record behind these values is publication PMC8034861.
